The text below walks through data of doi:10.1101/2022.12.06.518574 (bioRxiv, 2022).

Broadly, the stoichiometry N is a count of units in the complex or per binding partner.

Where a chain is given by its changes, count along the chain named. A value given as a limit tells only on which side of the number the result lay.

B1: Sen[K252,255A] (enzyme, UniProt Q5XD01 1-435, looked up)
chain: MSIITDVYAREVLDSRGNPTLEVEVYTESGAFGRGMVPSGASTGEHEAVELRDGDKSRYLGLGTQKAVDNVNNIIAKAIIGYDVRDQQAIDRAMIALDGTPNKGKLGANAILGVSIAVARAAADYLEVPLYTYLGGFNTKVLPTPMMNIINGGSHSDAPIAFQEFMIMPVGAPTFKEGLRWGAEVFHALKKILKERGLVTAVGDEGGFAPKFEGTEDGVETILKAIEAAGYEAGENGIMIGFDCASSEFYDAERAVYDYTKFEGEGAAVRTSAEQVDYLEELVNKYPIITIEDGMDENDWDGWKVLTERLGKRVQLVGDDFFVTNTEYLARGIKENAANSILIKVNQIGTLTETFEAIEMAKEAGYTAVVSHRSGETEDSTIADIAVATNAGQIKTGSLSRTDRIAKYNQLLRIEDQLGEVAQYKGIKSFYNLKK
B2: Sen[K252,255,434,435A] (enzyme, UniProt Q5XD01 1-435, looked up)
chain: B1 chain with K434A, K435A
B3: Sen[K434,435A] (enzyme, UniProt Q5XD01 1-435, looked up)
chain: B1 chain with A252K, A255K, K434A, K435A

One data set concerns the molecule itself. The data set is described as follows: AUC.
Take B1: the “stoichiometry N” value worked out at 8.

As to B2, the “stoichiometry N” value was 8.

As for B3, the “stoichiometry N” value was determined as 8.

Another data set concerns the molecule itself. In words: AUC. The source holds these as a separate data set.
Consider B1, for which the percent as octamer is ≥ 95%.

As for B2, the percent as octamer is ≥ 95%.

Regarding B3, the percent as octamer was ≥ 95%.
